T1: ACRE2 (ERF017) (Arabidopsis thaliana, UniProt Q84QC2 1-185)
T1 sequence: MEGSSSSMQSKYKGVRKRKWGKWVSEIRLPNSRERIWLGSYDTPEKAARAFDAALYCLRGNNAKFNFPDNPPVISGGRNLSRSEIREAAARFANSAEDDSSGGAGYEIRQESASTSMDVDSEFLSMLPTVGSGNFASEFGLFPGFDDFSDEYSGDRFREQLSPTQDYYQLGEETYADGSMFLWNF

T2: ORA47/ACRE3 (ERF018) (Arabidopsis thaliana, UniProt Q9S7L5 1-195)
T2 sequence: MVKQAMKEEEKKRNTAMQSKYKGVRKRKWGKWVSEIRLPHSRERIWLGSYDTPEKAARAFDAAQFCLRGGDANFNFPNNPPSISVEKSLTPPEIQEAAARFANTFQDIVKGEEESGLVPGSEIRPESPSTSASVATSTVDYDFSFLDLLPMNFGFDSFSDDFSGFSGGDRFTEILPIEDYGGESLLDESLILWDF

T3: ACRE1 (Arabidopsis thaliana, UniProt Q9C591 1-216)
T3 sequence: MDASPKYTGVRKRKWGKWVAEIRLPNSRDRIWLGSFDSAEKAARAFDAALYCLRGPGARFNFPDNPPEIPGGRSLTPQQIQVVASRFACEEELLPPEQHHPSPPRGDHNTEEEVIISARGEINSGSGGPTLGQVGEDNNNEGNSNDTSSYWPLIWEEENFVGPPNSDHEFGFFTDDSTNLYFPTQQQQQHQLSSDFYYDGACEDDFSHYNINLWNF

B1: DRE (dsDNA)
DNA 1: TCGAGTAAATCATGTCGGTTGAAAG
DNA 2: CTTTCAACCGACATGATTTACTCGA
B2: SPO (dsDNA)
DNA 1: CTAGTACACTTGGACGGCCACAT
DNA 2: ATGTGGCCGTCCAAGTGTACTAG
B3: BA (dsDNA)
DNA 1: CTAGTCTTAATGGACGGTATTGT
DNA 2: ACAATACCGTCCATTAAGACTAG

molecular target: T1, ACRE2 (ERF017); assay: EMSA; EMSA: 15 mM HEPES-KOH pH 7.5, 25 mM KCl, 0.25 mM EDTA, 6% glycerol, 2 mM DTT, 20 fmol probe (Methods print 20 fg), 0.2-0.8 ug protein, room temperature 30 min; conditions: protein: recombinant; tags: MBP (N-terminal); label: biotin as probe

Binding result, binds:
B1
B2
B3

molecular target: T2, ORA47/ACRE3 (ERF018); assay: as above; conditions: protein: recombinant; tags: MBP (N-terminal); label: biotin as probe

Binding result, binds:
B1
B2
B3

molecular target: T3, ACRE1; assay: as above; conditions: protein: recombinant; tags: MBP (N-terminal); label: biotin as probe

Binding result, binds:
B1
B2
B3

From publication PMC11076338, “ACRE, a class of AP2/ERF transcription factors, activates the expression of sweet potato ß-amylase and sporamin genes through the sugar-responsible element CMSRE-1”
